Legend:
[1] = target: HLA-A*68:02; test: IEDB peptide-MHC binding, purified MHC/competitive/radioactivity; filed as Kd, often an IC50 or EC50 that approximates it; ≥ and ≤ were set here for values at or beyond the usual limits of such assays; conditions: source organism: Homo sapiens
[2] = target: HLA-B*15:03; test: as above; conditions: source organism: Vaccinia virus WR
[3] = target: HLA-B*08:01; test: as above; conditions: source organism: Vaccinia virus WR
[4] = target: HLA-A*30:01; test: as above; conditions: source organism: Vaccinia virus WR
[5] = target: HLA-B*15:01; test: as above; conditions: source organism: Vaccinia virus WR
[6] = target: HLA-A*32:01; test: as above; conditions: source organism: Vaccinia virus WR
[7] = target: HLA-B*40:01; test: as above
[8] = target: HLA-B*44:03; test: as above
[9] = target: HLA-B*18:01; test: as above
[10] = target: HLA-B*45:01; test: as above
[11] = target: HLA-B*40:02; test: as above
[12] = target: HLA-B*44:02; test: as above
[13] = target: HLA-A*11:01; test: IEDB peptide-MHC binding, purified MHC/competitive/fluorescence; ≥ and ≤ were set here for values at or beyond the usual limits of such assays
[14] = target: HLA-A*03:01; test: as above
[15] = target: HLA-B*07:02; test: IEDB peptide-MHC binding, purified MHC/direct/fluorescence; filed as Kd, often an IC50 or EC50 that approximates it; ≥ and ≤ were set here for values at or beyond the usual limits of such assays; conditions: source organism: Influenza A virus (A/Duck/Shantou/1881/00(H9N2))
[16] = target: HLA-B*40:01; test: as above; conditions: source organism: Influenza A virus (A/Duck/Shantou/1881/00(H9N2))
[17] = target: HLA-B*27:05; test: as above; conditions: source organism: Influenza A virus (A/Duck/Shantou/1881/00(H9N2))
[18] = target: HLA-B*58:01; test: as above; conditions: source organism: Influenza A virus (A/Duck/Shantou/1881/00(H9N2))
[19] = target: HLA-A*02:11; test: as above; conditions: source organism: Influenza A virus(A/swine/Henan/8/2004(H9N2))
[20] = target: HLA-A*11:01; test: as above; conditions: source organism: Influenza A virus (A/Duck/Shantou/1881/00(H9N2))
[21] = target: HLA-A*02:12; test: as above; conditions: source organism: Influenza A virus(A/swine/Henan/8/2004(H9N2))
[22] = target: HLA-A*03:01; test: as above; conditions: source organism: Influenza A virus (A/Duck/Shantou/1881/00(H9N2))
[23] = target: HLA-B*15:01; test: as above; conditions: source organism: Influenza A virus (A/Duck/Shantou/1881/00(H9N2))
[24] = target: HLA-A*02:03; test: as above; conditions: source organism: Influenza A virus(A/swine/Henan/8/2004(H9N2))
[25] = target: HLA-A*02:19; test: as above; conditions: source organism: Influenza A virus(A/swine/Henan/8/2004(H9N2))
[26] = target: HLA-A*02:01; test: as above; conditions: source organism: Influenza A virus (A/Duck/Shantou/1881/00(H9N2))
[27] = target: HLA-A*01:01; test: as above; conditions: source organism: Influenza A virus (A/Duck/Shantou/1881/00(H9N2))
[28] = target: HLA-A*31:01; test: as above; conditions: source organism: Influenza A virus (A/Duck/Shantou/1881/00(H9N2))
[29] = target: HLA-A*24:03; test: as above; conditions: source organism: Influenza A virus (A/Duck/Shantou/1881/00(H9N2))
[30] = target: HLA-A*24:02; test: IEDB peptide-MHC binding, purified MHC/competitive/fluorescence; ≥ and ≤ were set here for values at or beyond the usual limits of such assays; conditions: source organism: Sudan ebolavirus
[31] = target: HLA-A*02:01; test: as above; conditions: source organism: Vaccinia virus Copenhagen
[32] = target: HLA-A*68:01; test: IEDB peptide-MHC binding, purified MHC/competitive/radioactivity; filed as Kd, often an IC50 or EC50 that approximates it; ≥ and ≤ were set here for values at or beyond the usual limits of such assays; conditions: source organism: Vaccinia virus WR
[33] = target: HLA-A*31:01; test: as above; conditions: source organism: Vaccinia virus WR
[34] = target: HLA-A*33:01; test: as above; conditions: source organism: Vaccinia virus WR
[35] = source organism: Mammarenavirus lassaense
[36] = source organism: SARS coronavirus Tor2
[37] = source organism: Sudan ebolavirus
[38] = source organism: Zaire ebolavirus
[39] = source organism: Mammarenavirus machupoense
[40] = source organism: Lymphocytic choriomeningitis virus (strain Armstrong)
[41] = source organism: Mammarenavirus brazilense
[42] = source organism: Vaccinia virus Copenhagen

ALKTELEDTL
Kd [1]: ≥ 60000 nM

TKFTDFQDF
Kd [2]: 2.22 nM

SQQNSDSIF
Kd [2]: 1.87 nM

FFKQTFGSL
Kd [3]: 0.735 nM | Kd [2]: 1080 nM | Kd [4]: 497 nM | Kd [5]: 1560 nM | Kd [6]: ≥ 55800 nM

FDAAASGGL
Kd [7, 35]: ≥ 28500 nM | Kd [8, 35]: ≥ 78100 nM | Kd [9, 35]: ≥ 65200 nM | Kd [10, 35]: ≥ 32200 nM | Kd [11, 35]: 3020 nM | Kd [12, 35]: ≥ 77900 nM

REGVFVFNGT
Kd [7, 36]: 677 nM | Kd [8, 36]: 306 nM | Kd [9, 36]: ≥ 70500 nM | Kd [10, 36]: 222 nM | Kd [11, 36]: 274 nM | Kd [12, 36]: 1600 nM

SGNRGSTSF
Kd [2]: 25.2 nM

KTIYAVDSF
Kd [3]: ≥ 31900 nM | Kd [2]: 321 nM | Kd [4]: 1390 nM | Kd [5]: 4.04 nM | Kd [6]: 6.78 nM

ITKGRISDR
IC50 [13, 37]: ≥ 135000 nM | IC50 [14, 37]: 66300 nM

KMAADRGAF
Kd [2]: 2.5 nM

HGFRFEVKK
IC50 [13, 38]: 86.5 nM | IC50 [14, 38]: 2200 nM

YKVFTDISM
Kd [2]: 2.18 nM

VEAVMYMGT
Kd [7, 36]: ≥ 31300 nM | Kd [8, 36]: 6510 nM | Kd [9, 36]: 2470 nM | Kd [10, 36]: 616 nM | Kd [11, 36]: 1320 nM | Kd [12, 36]: ≥ 21900 nM

SLPPNFSSL
Kd [15]: 1650 nM | Kd [16]: ≥ 20000 nM | Kd [17]: ≥ 20000 nM | Kd [18]: ≥ 20000 nM | Kd [19]: 24 nM | Kd [20]: ≥ 20000 nM | Kd [21]: 5 nM | Kd [22]: ≥ 20000 nM | Kd [23]: 115 nM | Kd [24]: 3 nM | Kd [25]: 124 nM | Kd [26]: 9.3 nM | Kd [27]: ≥ 20000 nM | Kd [28]: ≥ 20000 nM | Kd [29]: 7.5 nM

SEAQMSIQL
Kd [7, 35]: 11600 nM | Kd [8, 35]: 99.3 nM | Kd [9, 35]: 1100 nM | Kd [10, 35]: 542 nM | Kd [11, 35]: 15.3 nM | Kd [12, 35]: 161 nM

QTNTKATGK
IC50 [13, 37]: 2180 nM | IC50 [14, 37]: 14000 nM

IMVSEHFSL
Kd [2]: 5.51 nM

QELYSPLFLI
Kd [7, 36]: 690 nM | Kd [8, 36]: 7.36 nM | Kd [9, 36]: 4910 nM | Kd [10, 36]: 45.6 nM | Kd [11, 36]: 10.7 nM | Kd [12, 36]: 7.01 nM

RGSWATSSF
Kd [2]: 11.1 nM

ADMSKLLNL
Kd [7, 39]: 6250 nM | Kd [8, 39]: ≥ 51400 nM | Kd [9, 39]: ≥ 77500 nM | Kd [10, 39]: ≥ 77700 nM | Kd [11, 39]: 339 nM | Kd [12, 39]: 5440 nM

ILHHHRNVF
Kd [3]: 13 nM | Kd [2]: 1.33 nM

GERYYFAYI
Kd [3]: 6.86 nM | Kd [2]: 238 nM | Kd [4]: 6620 nM | Kd [5]: 673 nM | Kd [6]: 19500 nM

SLPRIALVR
IC50 ([13]; source organism: Variola virus): 408 nM | IC50 ([14]; source organism: Variola virus): 781 nM

RSLIIVLLF
Kd [3]: 959 nM | Kd [2]: 225 nM | Kd [4]: 2350 nM | Kd [5]: 194 nM | Kd [6]: 299 nM

FVYVPELSF
Kd [2]: 203 nM | Kd [5]: 0.963 nM

TYTILNRKA
IC50 [30]: 22100 nM | IC50 [13, 37]: ≥ 90000 nM | IC50 [14, 37]: ≥ 94900 nM

GDVELLGTT
Kd [7, 35]: ≥ 33700 nM | Kd [8, 35]: ≥ 52100 nM | Kd [9, 35]: ≥ 77500 nM | Kd [10, 35]: 16600 nM | Kd [11, 35]: 5920 nM | Kd [12, 35]: ≥ 41800 nM

FELTSMKYFV
Kd [7, 36]: 2140 nM | Kd [8, 36]: 4470 nM | Kd [9, 36]: ≥ 37900 nM | Kd [10, 36]: 7780 nM | Kd [11, 36]: 24.2 nM | Kd [12, 36]: 7160 nM

FESYVRPFVA
Kd [7, 35]: 5420 nM | Kd [8, 35]: ≥ 32000 nM | Kd [9, 35]: 982 nM | Kd [10, 35]: 151 nM | Kd [11, 35]: 19.9 nM | Kd [12, 35]: ≥ 70200 nM

KPNSFTFSF
Kd [2]: 254 nM | Kd [6]: 13900 nM

AEALGPFQS
Kd [7, 40]: ≥ 32100 nM | Kd [8, 40]: 6970 nM | Kd [9, 40]: ≥ 77500 nM | Kd [10, 40]: 132 nM | Kd [11, 40]: 4960 nM | Kd [12, 40]: 1320 nM

GERSRCYSL
Kd [7, 41]: 3380 nM | Kd [8, 41]: ≥ 78100 nM | Kd [9, 41]: ≥ 77500 nM | Kd [10, 41]: ≥ 77700 nM | Kd [11, 41]: 51.2 nM | Kd [12, 41]: ≥ 77900 nM

YDFNKLTAL
Kd [7, 35]: 5340 nM | Kd [8, 35]: 9170 nM | Kd [9, 35]: 6780 nM | Kd [10, 35]: ≥ 77700 nM | Kd [11, 35]: 19.8 nM | Kd [12, 35]: 2270 nM

FEKMVSLLSV
Kd [7, 36]: 25.2 nM | Kd [8, 36]: 6180 nM | Kd [9, 36]: 145 nM | Kd [10, 36]: 784 nM | Kd [11, 36]: 23.7 nM | Kd [12, 36]: 3280 nM

NMFNISFRF
Kd [3]: 1540 nM | Kd [2]: 18.5 nM | Kd [4]: 27.2 nM | Kd [5]: 43.4 nM | Kd [6]: 3.6 nM

RKYSDLVPK
IC50 [13, 37]: 4130 nM | IC50 [14, 37]: 49100 nM

SEAPNAKEEI
Kd [7, 36]: 1180 nM | Kd [8, 36]: 145 nM | Kd [9, 36]: ≥ 27200 nM | Kd [10, 36]: 319 nM | Kd [11, 36]: 3350 nM | Kd [12, 36]: 105 nM

TKTLDISSF
Kd [2]: 54.5 nM

FIMLEGETK
IC50 [13, 42]: 4880 nM | IC50 [14, 42]: ≥ 116000 nM | IC50 [31]: 30700 nM | Kd [32]: 28.1 nM | Kd [33]: 17800 nM | Kd [34]: 4410 nM

— the Immune Epitope Database (IEDB)
